# Where a chain is given by its changes, count along the chain named. Names may count otherwise.
# T1: mouse UHRF1 PHD finger (residues 304–372) (mouse, UniProt Q8VDF2 304-372)
# T1 sequence (looked up): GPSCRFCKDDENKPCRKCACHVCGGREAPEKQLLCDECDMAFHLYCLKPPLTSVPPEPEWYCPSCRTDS
# T2: mouse UHRF1 PHD finger (residues 304–372) L337A (mouse, UniProt Q8VDF2 304-372, L337A)
# T2 sequence (looked up): T1 sequence (looked up) with L34A
# B1: mDPPA3 residues 85–118 (peptide, UniProt Q8QZY3 85-118, looked up)
# chain: KRRVRTLLSVLKDPIAKMRRLVRIEQRQKRLEGN
# B2: mDPPA3 residues 76–127 followed by an additional Trp (mDPPA3 76–128W) (domain or fragment, mouse)
# chain: RREVQSAFPKRRVRTLLSVLKDPIAKMRRLVRIEQRQKRLEGNEFERDSEPFW
# B3: mDPPA3 76–128W R104A (domain or fragment, mouse)
# chain: B2 chain with R29A
# B4: mDPPA3 76–128W L91A/V94A (domain or fragment, mouse)
# chain: B2 chain with L16A, V19A
# B5: mDPPA3 76–128W R89A (domain or fragment, mouse)
# chain: B2 chain with R14A
# How the values were obtained:
# Assay in all cases: ITC
# [1] = molecular target: mouse UHRF1 PHD finger (residues 304–372) (mouse) (UniProt Q8VDF2)
# [2] = molecular target: T1, mouse UHRF1 PHD finger (residues …)
# [3] = molecular target: T2, mouse UHRF1 PHD finger (residues …)
Molecule,Kd [2] [nM],other results
N-terminal tail of PAF15 (PCNA-associated factor 15) (peptide),–,Kd [1]: 3520 nM
B1,45,–
B2,27.7,Kd [3]: > 43000 nM
B3,–,binding result [2]: binds
B4,1080,–
B5,361,–

# Source: PMC9757060 (Nucleic Acids Research, 2022)
